Assay in all cases: purified protein
What all share (conditions): potassium phosphate pH 7.5, 22-23 °C

Substrate in series [1]: O=C(Nc1ccn([C@H]2C[C@H](O)[C@@H](CO)O2)c(=O)n1)c1ccccc1
Substrate in series [2]: Nc1ccn([C@H]2C[C@H](O)[C@@H](CO)O2)c(=O)n1
The series is classed as biochemical, uncultured bacterium.

Substrate in series [3]: O=C(Nc1ccn([C@H]2C[C@H](O)[C@@H](CO)O2)c(=O)n1)c1ccccc1
Type of series: biochemical, uncultured bacterium.

Setting [4] is: substrate not given, inferred from the stated about twofold rise over wild type.

Numbering of substitutions follows the chain as printed. Names and notes keep the numbering of the source.

B1: CDA_F14 (uncultured bacterium; G81L) (protein)
chain: MNKEDLLKKAFEAMENAYAPYSNYHVGACALMKDGTTFLGANIENASYGATNCGERSAIFAAYSNGYRADDIEALAIVTDLDRVGAPCGICRQVLSELLNDNTPIYLSNGKETLEKTIDELLPMRFTKEDLL
In the case of B1, in series [1], the Km entry is given as “(8.66 ± 3.8) × 10^-4 M” and the kcat entry was “(7.89 ± 3.08) × 10^-1 s^-1”.

B2: CDA_F14 (uncultured bacterium; G81L/G85I) (protein)
chain: B1 chain with G85I
Turning to B2, in series [1], the Km result is “(4.93 ± 1.3) × 10^-4 M” and the kcat entry was “(4.14 ± 0.88) × 10^-2 s^-1”.

B3: CDA_F14 (uncultured bacterium; F126A) (protein)
chain: B1 chain with L81G, F126A
Consider B3, for which, in series [1] (setting [4]), the Km result is “(2.59 ± 0.73) × 10^−4 M”.

B4: CDA_F14 (uncultured bacterium) (protein)
chain: B1 chain with L81G
notes: recombinant in E. coli HMS174 delta-pyrF delta-cdd, purified; homotetramer, one Zn per subunit; active site formed by three subunits
For B4, the Km entry in series [2] was “(1.95 ± 0.36) × 10^−4 M”; in series [3], “(1.15 ± 0.16) × 10^−4 M”. Besides, the kcat entry in series [2] is “(24.4 ± 1.71) × 10^−1 s^−1”; in series [3], “(5.04 ± 0.4) × 10^−1 s^−1”.

B5: CDA_F14 (uncultured bacterium; F126W) (protein)
chain: B1 chain with L81G, F126W
notes: as for B4
For the protein B5, the Km result in series [3] (setting [4]) is recorded as “(2.11 ± 0.38) × 10^−4 M”.

Source of the values: publication PMC9897663.
